The numbers were not newly measured in PMC4364296, which cites them from elsewhere.

Several values for one entry are separate records, joined by “and”; a condition that tells them apart may be missing. Equal entries are not always repeated. Where two headings read alike, the source gives them in different places.

For series [1], the target named is ZipA (Escherichia coli) (UniProt P77173).
Series [2] has the same target. This is another data set of the same source.

FtsZ, sequence (P0A9A6 whole entry): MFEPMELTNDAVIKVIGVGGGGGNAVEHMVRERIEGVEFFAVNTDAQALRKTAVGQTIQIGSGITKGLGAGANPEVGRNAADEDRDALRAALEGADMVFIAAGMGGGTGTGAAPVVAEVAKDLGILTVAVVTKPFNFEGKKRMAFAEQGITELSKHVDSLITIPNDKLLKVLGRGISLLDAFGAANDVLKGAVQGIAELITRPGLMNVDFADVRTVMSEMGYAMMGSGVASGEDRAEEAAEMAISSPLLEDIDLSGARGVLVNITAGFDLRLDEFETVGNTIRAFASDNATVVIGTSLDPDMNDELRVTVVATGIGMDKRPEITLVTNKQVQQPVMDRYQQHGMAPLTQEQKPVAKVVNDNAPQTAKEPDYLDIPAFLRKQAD

As usually defined, the Kd is the constant that tells how readily two partners part at equilibrium. Consider “FtsZ CCTP peptide CCTP (from UniProt P0A9A6)”, for which the Kd in series [1] was 35 µM and 21.6 µM. Regarding FtsZ (from UniProt P0A9A6), the Kd in series [2] was 40 µM.
